Molecular target: HH-120 (IgM-like hACE2-Fc fusion protein) (UniProt Q9BYF1)
Assay: SPR

Substance	Kd [nM]
S trimer protein of the SARS-CoV-2 Delta variant (from UniProt P0DTC2) (natural protein)	1
S trimer protein of the SARS-CoV-2 Omicron variant (from UniProt P0DTC2) (natural protein)	1
S trimer protein of the SARS-CoV-2 Beta variant (from UniProt P0DTC2) (natural protein)	1
S trimer protein of the SARS-CoV-2 Alpha variant (from UniProt P0DTC2) (natural protein)	1

Source: PMC10457309
